Laboratory results reported in the DeepSol protein solubility set.

Test: soluble on expression in E. coli; label from the status in PepcDB or PDB records

Sequence | soluble on expression in E. coli
MRVAVTGTPGTGKTTATGRLDTALDVAHLNDLVGTEGLYDGVDADRGSKIVDVDAVRDHFAGREDVLVESHLAHRLDDLDAVVVLRCAPETLATRLQDRGDSPEKAAENADSEALAIILSEAVRGHGADAVYEIDTTDRSPDAVAAAIQAVLDGDREPSAGTVDYTDYV | not soluble
MRVELDFRSVKMQVSQYLYQNVQSIWGDCISHPFVQGIGRGTLERDKFRFYIIQDYLFLLEYAKVFALGVVKACDEAVMREFSNAIQDILNNEMSIHNHYIRGLQITQKELQNARPTLANKSYTSYMLAEGFKGSIKEVAAAVLSCGWSYLVIAQNLSQIPNALEHAFYGHWIKGYSSKEFQACVNWNINLLDSLTLTSSKQEIEKLKDIFITTSEYEYLFWDMAYQSLEHHHHHH | not soluble
MRVIEVKNLTFSYDGKHNVLEDVSFYVEKGDFLGIVGPNGAGKSTLLKLILGFLKPKSGEIYLFGKKIEEFKDWKRVGYVPQRLSVEHAFPGTVKELLSSVCEDKKEIDYLVEFLKLKNIVNKQFTKLSGGQQQRVLLAMALSYNPELILLDEPTVGLDVHAINHFMSILLDLNMNHKKSIVMISHDIGTLLKHASKILCLNKKVCYFGEPEGAIEYIEEAFGLRGFLHGVS | soluble
MRVIVFFDLPVITPENRHNYSVFRKYLIKSGFIMQQKSVYSKLVLNLTNRDSIVKSIEKNKPPEGLVEVLTVTEKQYAKMEIIIGESKTEYLNTDERLVVLLEHHHHHH | soluble
MRVKIRRELLEYLLELAKSFYPREVAGFLRMKDGVFEEVLIVPKGFFGESSVYFDLTLMPHDESIKGTFHSHPSPFPYPSEGDLMFFSKFGGIHIIAAFPYDEDSVKAFDSEGREVELEVID | soluble
MRVLIVKTSSMGDVLHTLPALTDAQQAIPGIKFDWVVEEGFAQIPSWHAAVERVIPVAIRRWRKAWFSAPIKAERKAFREALQAKNYDAVIDAQGLVKSAALVTRLAHGVKHGMDWQTAREPLASLFYNRKHHIAKQQHAVERTRELFAKSLGYSKPQTQGDYAIAQHFLTNLPTDAGEYAVFLHATTRDDKHWPEEHWRELIGLLADSGIRIKLPWGAPHEEERAKRLAEGFAYVEVLPKMSLEGVARVLAGAKFVVSVDTGLSHLTAALDRPNITVYGPTDPGLIGGYGKNQMVCRAPGNELSQLTANAVKQFIEENAEKAAMI | soluble
MRVRNIQGEDYVKIYSVLNDWWGGRDMAVMLPKLFFIHFQETSFIIEEEGETLGFLCGFFSQTHKEEAYVHFIGVNPKYRRRGIASTLYSYFFDVARANNRKVVKAITSPVNKKSIQFHREIGFQIEAGDDEIEGVSVHTNYDGNGGSRVLFLKNV | not soluble
MRVSCVYATASRWGGPPVASEVRGDAAISTTPDAAPGLAARRRRILFVAEAVTLAHVVRPFALAQSLDPSRYEVHFACDPRYNQLLGPLPFRHHAIHTIPSERFFGNLTQGRFYAMRTLRKYVEADLRVLDEIAPDLVVGDLRISLSVSARLAGIPYIAIANAYWSPYAQRRFPLPDVIWTRLFGVRLVKLLYRLERPLLFALQCMPLNWVRRRHGLSSLGWNLCRIFTDGDHTLYADVPELMPTYDLPANHEYLGPVLWSPAGKPPTWWDSLPTDRPIVYATLGTSGGRNLLQLVLNALAELPVTVIAATAGRSDLKTVPANAFVADYLPGEAAAARSAVVVCNGGSLTTQQALVAGVPVIGVAGNLDQHLNMEAVERAGAGVLLRTERLKSQRVAGAVMQVISRSEYRQAAARLADAFGRDRVGFPQHVENALRLMPENRPRTWLAS | not soluble
MRVSDQVVQKLQGLIEQRHLKQGDRLPAERQLATSLGISRPSLREAIQQLNSLGILASRRGDGTYIQQLPETWSQQLIVEPISNLIEEDPEYRFDVQEARIVLEGGTAWYAALRSTEADRAKIHQCFDEIAYHQLQGDSAAAAVADANFHLAIAEASHNLVLIQMMRSLFDLLQYNVVLGRKKVYNHPVSADQLSEQHFQVMDAIDRQDAQAARDAVCGHIEFVIDHVRSLDEDEARQKRATRLHRIDQT | not soluble
MRVSLYVVVGGFALLTGCQTLDNHQVTKPEAQTVTTENTVPQYYLATEPESAQVTDVWERIRQGMQLPVPDKKLVNYYRDWYINNPKHLEVISERAAPYMYLIVEELEKRHLPIEIALLPIIESAFDPSASSASAASGLWQFTTPMASHFGLEMNWWYDGRRDVPASTTAALDMLEYLYNKTNNNWLYAIAAYNTGESKVLNAIKRNEDKGLKTDFWSLDLPKETKRYVPQLLALAEVIKHADEYGITLAPINNSPSIEVVDIDSQIDLAMAAGLANMTTTELAKLNPGYNRWATSPLGPHTLVLPIDKSEEFKKALAETESEARVSWLRYTIKSGDSIGSIAQKHHTTVNAIRAANGMKSNNIVAGRHLIIPVSADDKQLYALSTSQKLPKKAAGATSGNKLTYQVKSGDSLWQIAQAHNVSVKQLTAWNHLSKDSKLQTGQKLTIVAPQEKLDSEHIRTVSYKVKSGDSLAQIASKFKVTVAELLEWNSLTPSQYILPGQVLKLVVDESNLNALEHHHHHH | not soluble
MRVVIQRVKGAILSVRKENIGENEKELEIISEIKNGLICFLGIHKNDTWEDALYIIRKCLNLRLWNNDNKTWDKNVKDLNYELLIVSQFTLFGNTKKGNKPDFHLAKEPNEALIFYNKIIDEFKKQYNDDKIKIGKFGNYMNIDVTNDGPVTIYIDTHDINLNK | soluble
MRWAIVRFPGANCDEDARFALEKAGIRAEFVWHTERDLRGFDGVFLPGGFSYGDYLRAGALAAKSPVMEAVRRFAEEGRYVVGVCNGFQILTEAGLLPGALLANLNLHFTCKEVGVRVERNDLPFTRLYPRGQVLRLPIAHGEGRYYADPETLARLEGEGLVVFRYAPLKDEADYNPNGSLHDIAGIVSEKGNVLGMMPHPERAVDEVLGNTDGLPFFLGLVKEVAR | soluble
MRWAPVTYTVGSSSVGSFPAVQWRGINTPTQIVFSLSSSEVRSYRLRIFVPLAQVSARPQIAVNARWNGPVPAAPNQPKTRGITRGTTRGNNTLCEVDIPATALQAGSNRIAISLASGSPDNGFLSPAIVYDSVQLVAPLEHHHHHH | not soluble
MRWVRFFHEVGLEDVPLVGGKNASLGEMIRELSPLGVRVPEGFATTSEAYWHFLEHNGLKEAIARELGELDPEDPKALQRVSRRLRNLILKGEYPQDLREEILEAYRRLSEEAVEEEIPVAVRSSATAEDLLTASFAGQQESFLYVQGEADLLLHVKRAMASLFTARAISYRAHMGFDHLKVALSVGVQRMVRADDAASGVIFTLDPDTGHRGFVYLTAIYGLGENIVQGRVIPDGYYVHKETFREGFRAVVYRRLGAKELTLAFDPREGRLKNRPTPLYLRNRFALRDEEVLLLADWAMKIEDHYSKKRGSPTPMDIEWAKDGPTGELFVLQARPETVHSQKTPVLRVFRLLKRGEVLAEGLAVGEAIAMGRARVLKDPKEMDRFQEGEVLVTETTNPDWEPIMKKAAAIVTERGGRTSHAAIVARELGVPAVVGAVGATRSVPEGEEVTVSCAEGERGVVYRGRLPFEVEEIRPETLPRTRTRILVNVGTPEEALRTSLLPTDGVGLLRMEFVFASHVRVHPLALTRFETLPKEVRRQVEEVTEAYPDKRAYFVETLSQGIGLIAAAFYPRPVLLRFSDFKTNEYARLLGGHLFEPKEENPMLGWRGASRYYHPDYKEGFLLEVAAVRRVREEMGLKNLMVMVPFCRTPEEGEKVLEVMAEGGLRREEGGLEVHVMAEIPSNVLEAEAFAELFDGFSIGSNDLTQLALGLDRDSERVAHLFDERRETVKRLAAMLIEKAHAKGKKVGICGQAPSDYPEFAAFLVERGIDSLSLNPDALLRTVREVAEVERRLGIG | soluble
MRYMMTYDWMETVRNTNQWMGATANSMASYPLFSMVPNPVFNWMSAWGEVTERTFQRMVVKPDWGIRTFTCEDGKDHLVEINTVVERDFGDLIHINVTGRETQPRKVLLVAPMSGHYATLLRSTVKSLLVNCEVYVTDWHNARDIPVSAGKFDVEDYTLYLVDFMRELGPDTHVIAVCQPAPLTLAATAYLAELDPKAQPSTLTLIGGPVDPDATPTEVTDFGRRVTMGQLEQSMIQRVGFKYKGVGRMVYPGLLQLASFMSMNADRHSKAFTDQIQRVMRDEASDHDAHNRFYDEYLAVMDMTAEFYLSTVERVFKKREIARNAFIVDGHKVDISKITDVAVMTVEGANDDISAPGQCIAALDLCTGLADSKKANHLEPGAGHYGIFAGRSWRDNIRPLVIDFMNTNSRKGKSLRPANKNSAA | not soluble
MSAEFERLLAQFERFQSKIKKVDDQLANVERMQSEIAELEATASNADRSITIVAGPGGAIKDIQLTDKALSQQPQALSAALMSTIQEAVAEAARKQAAIVDDHMGGQLNVTDQVLETQAQLFGTSPQELRERMEQERPIRQTPLRPEEEYHEDYSHQDFLGSDQEQQSPPPPPAPSGGSAGDEFLQNLFNNDDHR | not soluble
MSAEFNQLVAQFEQFQAKLHRVDQQFADLGQMQRELTELEVVATSADREVTVVAGPSGTIKDIRLTDQAMHRPPQALATALMATLRQAVAESARRQAGIVENALGDEMGLTEQVLETQAQLFGVTPQELRAMTEQAPGQPPAAPPPAPPAAGPGPQTPLAPPARPTPPRRPAPAEEADDFSQRGFLRDDDQQPRRPQADPGQKRDDRFLNLYDDEGR | not soluble
MSAESGVAALLRLMAWLSPAFPVGGFSYSGGLEKAVEDGRVCDAAGLGGWVETLLRHGSLWNDAVFLAHAWRSSQDTTALSETANLGRALAGSAERYRETVLLGDAFIAAASAWPHAVLELLPKEAPYPVAIGAVAAGHGVPLRETLAAFLHAGVSQIVSAGIRLGVAGQKDGVAILAASEAVIEEIAARAALSTLDDLGSATVIADTAAMRHETQGTRLFRSLEHHHHHH | not soluble
MSAKQVSKDEEKEALNLFLSTQTIIKEALRKLGYPGDMYELMKEPQRMLTVRIPVKMDNGSVKVFTGYRSQHNDAVGPTKGGVRFHPEVNEEKVKALSIWMTLKCGIANLPYGGGKGGIICDPRTMSFGELERLSRGYVRAISQIVGPTKDIPAPDVYTNSQIMAWMMDEYSRLREFDSPGFITGKPLVLGGSQGRETATAQGVTICIEEAVKKKGIKLQNARIIIQGFGNAGSFLAKFMHDAGAKVIGISDANGGLYNPDGLDIPYLLDKRDSFGMVTNLFTDVITNEELLEKDCDILVPAAISNQITAKNAHNIQASIVVERANGPTTIDATKILNERGVLLVPDILASAGGVTVSYFEWVQNNQGYYWSEEEVAEKLRSVMVSSFETIYQTAATHKVDMRLAAYMTGIRKSAEASRFRGWV | soluble
MSAMENESNKDTNTETKSVPEEMEASKYVGQGFQPPAEKDAIEFAKKHRKEFEKVGEQFFKDNFGLKVKATNVVGKDDGVEVYVHCEDHGIVFNASLPLYKDAIHQKGSMRSNDNGDDMSMMVGTVLSGFEYRAQKEKYDNLYKFFKENEKKYQYTGFTKEAINKTQNVGYQNEYFYITYLSRNLKEYRKYYEPLIHKNDKEFKEGMQQARKELDYTANTDAVSTLFSTKKNFTKDNTVDDVIELSNKLKEKPNMPQKSQVTIQLGKSSINTKKPFYDDINPIEGLEHHHHHH | soluble
MSAPLRVLVTGAAGQIGYSIVIRIADGTVFGKEQPVELVLLDVPQCSNILEGVVFELQDCALPTLFSVVAVTDEKSAFTGIDYAFLVGAMPRREGMERKDLLAANVKIFKSQGKALAEYAKPTTKVIVVGNPANTNAFIAAKYAAGKIPAKNFSAMTRLDHNRALAQLALKTGTTIGNVKNVIIWGNHSGTQFPDVTHATVNKNGTETDAYAAVGDNAFLQGPFIATVQKRGGVIIEKRKLSSAMSAAKAACDHIHDWHFGTKAGQFVSMAVPSDGSYGIPQGLIFSFPVTIEGGEWKIVQGLSFDDFAKGKIAATTKELEEERDDALKACDDANI | not soluble
